In US8168587B2, “Combination enzyme replacement and small molecule therapy for treatment of lysosomal storage diseases” (Genezyme Corporation, priority 2000, dated 2012):

B1: α-galactosidase A: lysosomal enzyme deficient in Fabry disease, given as a single intravenous infusion for enzyme replacement (protein, UniProt P06280 32-429, looked up)
Alpha-galactosidase A: LDNGLARTPTMGWLHWERFMCNLDCQEEPDSCISEKLFMEMAELMVSEGWKDAGYEYLCIDDCWMAPQRDSEGRLQADPQRFPHGIRQLANYVHSKGLKLGIYADVGNKTCAGFPGSFGYYDIDAQTFADWGVDLLKFDGCYCDSLENLADGYKHMSLALNRTGRSIVYSCEWPLYMWPFQKPNYTEIRQYCNHWRNFADIDDSWKSIKSILDWTSFNQERIVDVAGPGGWNDPDMLVIGNFGLSWNQQVTQMALWAIMAAPLFMSNDLRHISPQAKALLQDKDVIAINQDPLGKQGYQLRQGDNFEVWERPLSGLAWAVAMINRQEIGGPRSYTIAVASLGKGVACNPACFITQLLPVKRKLGFYEWTSRLRSHINPTGTVLLQLENTMQMSLKDLL

Test system: Fabry mice
Assay: Sequential enzyme replacement then small molecule therapy: GB3 re-accumulation in Fabry mouse liver
Excerpt: In vivo efficacy of combination enzyme replacement therapy plus small molecule therapy in Fabry disease. […] Study protocol for sequential combination of enzyme (α-galactosidase A) replacement followed by small molecule administration (NB-DNJ, AMP-DNJ or D-t-et-P4) on globotriaosylceramide (GB3) re-accumulation in Fabry mice. […] Results of study protocol for Fabry mouse liver tissue. GB3 re-accumulation at four weeks (μg GB3 per gm liver tissue) is plotted on the ordinate versus absence of small molecule treatment (Vehicle) or daily intra-peritoneal small molecule therapy with D-t-et-P4 (at either 5 mg/kg or 0.5 mg/kg), NB-DNJ (at 500 mg/kg), or AMP-DNJ (at 100 mg/kg).
Fabry mice were used to test the in vivo efficacy of combining enzyme replacement therapy with small molecule therapy in a sequential treatment format (FIG. 1). The study was designed to evaluate whether substrate inhibition (i.e. “substrate deprivation therapy”) using small molecules of the DNJ and P4 types could reduce re-accumulation of the storage material globotriaosylceramide (GB3). The study protocol (FIG. 1A) called for a single infusion of α-galactosidase A enzyme to reduce GB3 levels (measured at two weeks) to a “Baseline” level in Fabry mouse liver. GB3 re-accumulation was then measured at four weeks in control mice receiving no small molecule therapy (“Vehicle”) and in mice receiving various small molecules at various doses. Accordingly, two weeks after GB3 levels were reduced to a “Baseline” level of about 0.1 μg/g liver (FIG. 1B), a small molecule or vehicle was administered by intra-peritoneal (IP) injection.

Molecule	GB3 re-accumulation in Fabry mouse liver tissue (5 mg/kg daily IP after single α-galactosidase A infusion, four week time point, vehicle about 0.8, baseline about 0.1)	Baseline GB3 level in Fabry mouse liver (two weeks after a single infusion of α-galactosidase A enzyme)	Baseline GB3 level in Fabry mouse liver (two weeks after a single α-galactosidase A intravenous infusion)
D-threo-1-(3′,4′-ethylenedioxy)phenyl-2-palmitoylamino-3-pyrrolidino-1-propanol [D-t-et-P4, reference compound]	less than 0.4 μg/gm	–	–
B1	–	about 0.1 μg/g liver	about 0.1 μg/gm liver tissue
